# Reference: IntAct's records for PubMed 24725409
# B1: Cadherin-related family member 2 (Homo sapiens), Q9BYE9 (parent)
# chain: MAQLWLSCFLLPALVVSVAANVAPKFLANMTSVILPEDLPVGAQAFWLVAEDQDNDPLTYGMSGPNAYFFAVTPKTGEVKLASALDYETLYTFKVTISVSDPYIQVQREMLVIVEDRNDNAPVFQNTAFSTSINETLPVGSVVFSVLAVDKDMGSAGMVVYSIEKVIPSTGDSEHLFRILANGSIVLNGSLSYNNKSAFYQLELKACDLGGMYHNTFTIQCSLPVFLSISVVDQPDLDPQFVREFYSASVAEDAAKGTSVLTVEAVDGDKGINDPVIYSISYSTRPGWFDIGADGVIRVNGSLDREQLLEADEEVQLQVTATETHLNIYGQEAKVSIWVTVRVMDVNDHKPEFYNCSLPACTFTPEEAQVNFTGYVDEHASPRIPIDDLTMVVYDPDKGSNGTFLLSLGGPDAEAFSVSPERAVGSASVQVLVRVSALVDYERQTAMAVQVVATDSVSQNFSVAMVTIHLRDINDHRPTFPQSLYVLTVPEHSATGSVVTDSIHATDPDTGAWGQITYSLLPGNGADLFQVDPVSGTVTVRNGELLDRESQAVYYLTLQATDGGNLSSSTTLQIHLLDINDNAPVVSGSYNIFVQEEEGNVSVTIQAHDNDEPGTNNSRLLFNLLPGPYSHNFSLDPDTGLLRNLGPLDREAIDPALEGRIVLTVLVSDCGEPVLGTKVNVTITVEDINDNLPIFNQSSYNFTVKEEDPGVLVGVVKAWDADQTEANNRISFSLSGSGANYFMIRGLVLGAGWAEGYLRLPPDVSLDYETQPVFNLTVSAENPDPQGGETIVDVCVNVKDVNDNPPTLDVASLRGIRVAENGSQHGQVAVVVASDVDTSAQLEIQLVNILCTKAGVDVGSLCWGWFSVAANGSVYINQSKAIDYEACDLVTLVVRACDLATDPGFQAYSNNGSLLITIEDVNDNAPYFLPENKTFVIIPELVLPNREVASVRARDDDSGNNGVILFSILRVDFISKDGATIPFQGVFSIFTSSEADVFAGSIQPVTSLDSTLQGTYQVTVQARDRPSLGPFLEATTTLNLFTVDQSYRSRLQFSTPKEEVGANRQAINAALTQATRTTVYIVDIQDIDSAARARPHSYLDAYFVFPNGSALTLDELSVMIRNDQDSLTQLLQLGLVVLGSQESQESDLSKQLISVIIGLGVALLLVLVIMTMAFVCVRKSYNRKLQAMKAAKEARKTAAGVMPSAPAIPGTNMYNTERANPMLNLPNKDLGLEYLSPSNDLDSVSVNSLDDNSVDVDKNSQEIKEHRPPHTPPEPDPEPLSVVLLGRQAGASGQLEGPSYTNAGLDTTDL
# partner: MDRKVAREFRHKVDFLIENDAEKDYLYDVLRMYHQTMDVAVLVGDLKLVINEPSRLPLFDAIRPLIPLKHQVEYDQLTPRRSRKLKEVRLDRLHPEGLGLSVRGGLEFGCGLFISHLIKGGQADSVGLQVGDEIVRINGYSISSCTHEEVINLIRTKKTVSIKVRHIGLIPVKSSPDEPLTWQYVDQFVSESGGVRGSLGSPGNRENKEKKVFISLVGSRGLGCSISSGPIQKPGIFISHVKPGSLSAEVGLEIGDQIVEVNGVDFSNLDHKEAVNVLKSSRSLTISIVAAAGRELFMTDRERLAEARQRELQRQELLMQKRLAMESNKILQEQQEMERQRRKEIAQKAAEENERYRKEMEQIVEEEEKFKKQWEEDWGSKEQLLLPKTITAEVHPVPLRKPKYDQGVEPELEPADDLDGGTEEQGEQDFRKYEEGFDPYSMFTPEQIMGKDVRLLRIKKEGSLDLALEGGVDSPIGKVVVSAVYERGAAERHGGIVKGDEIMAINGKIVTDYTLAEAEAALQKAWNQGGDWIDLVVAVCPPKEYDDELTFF
# B2: Cadherin-related family member 5 (Homo sapiens), Q9HBB8-2 (parent)
# chain: MGSWALLWPPLLFTGLLVRPPGTMAQAQYCSVNKDIFEVEENTNVTEPLVDIHVPEGQEVTLGALSTPFAFRIQGNQLFLNVTPDYEEKSLLEAQLLCQSGGTLVTQLRVFVSVLDVNDNAPEFPFKTKEIRVEEDTKVNSTVIPETQLQAEDRDKDDILFYTLQEMTAGASDYFSLVSVNRPALRLDRPLDFYERPNMTFWLLVRDTPGENVEPSHTATATLVLNVVPADLRPPWFLPCTFSDGYVCIQAQYHGAVPTGHILPSPLVLRPGPIYAEDGDRGINQPIIYSIFRGNVNGTFIIHPDSGNLTVARSVPSPMTFLLLVKGQQADLARYSVTQVTVEAVAAAGSPPRFPQRLYRGTVARGAGAGVVVKDAAAPSQPLRIQAQDPEFSDLNSAITYRITNHSHFRMEGEVVLTTTTLAQAGAFYAEVEAHNTVTSGTATTVIEIQVSEQEPPSTGGGPSEDKRFSVVDMAALGGVLGALLLLALLGLAVLVHKHYGPRLKCCCGKAPEPQPQGFDNQAFLPDHKANWAPVPSPTHDPKPAEAPMPAEPAPPGPASPGGAPEPPAAARAGGSPTAVRSILTKERRPEGGYKAVWFGEDIGTEADVVVLNAPTLDVDGASDSGSGDEGEGAGRGGGPYDAPGGDDSYI
# partner: B1 chain
# B3: Cadherin-related family member 5 (Homo sapiens), Q9HBB8 (parent)
# chain: MGSWALLWPPLLFTGLLVRPPGTMAQAQYCSVNKDIFEVEENTNVTEPLVDIHVPEGQEVTLGALSTPFAFRIQGNQLFLNVTPDYEEKSLLEAQLLCQSGGTLVTQLRVFVSVLDVNDNAPEFPFKTKEIRVEEDTKVNSTVIPETQLQAEDRDKDDILFYTLQEMTAGASDYFSLVSVNRPALRLDRPLDFYERPNMTFWLLVRDTPGENVEPSHTATATLVLNVVPADLRPPWFLPCTFSDGYVCIQAQYHGAVPTGHILPSPLVLRPGPIYAEDGDRGINQPIIYSIFRGNVNGTFIIHPDSGNLTVARSVPSPMTFLLLVKGQQADLARYSVTQVTVEAVAAAGSPPRFPQRLYRGTVARGAGAGVVVKDAAAPSQPLRIQAQDPEFSDLNSAITYRITNHSHFRMEGEVVLTTTTLAQAGAFYAEVEAHNTVTSGTATTVIEIQVSEQEPPSTDVPPSPEAGGTTGPWTSTTSEVPRPPEPSQGPSTTSSGGGTGPHPPSGTTLRPPTSSTPGGPPGAENSTSHQPATPGGDTAQTPKPGTSQPMPPGVGTSTSHQPATPSGGTAQTPEPGTSQPMPPSMGTSTSHQPATPGGGTAQTPEAGTSQPMPPGMGTSTSHQPTTPGGGTAQTPEPGTSQPMPLSKSTPSSGGGPSEDKRFSVVDMAALGGVLGALLLLALLGLAVLVHKHYGPRLKCCCGKAPEPQPQGFDNQAFLPDHKANWAPVPSPTHDPKPAEAPMPAEPAPPGPASPGGAPEPPAAARAGGSPTAVRSILTKERRPEGGYKAVWFGEDIGTEADVVVLNAPTLDVDGASDSGSGDEGEGAGRGGGPYDAPGGDDSYI
# partner: B1 partner
# Variants of: B1
# Details: with USH1C
row,Variant,effect of a mutation on the interaction
1,L1310R,disrupting interaction strength

# Variants of: B2
# Details: with cdhr2_human CDHR2, Q9BYE9
row,Variant,effect of a mutation on the interaction
1,R109G,disrupting interaction strength

# Variants of: B3
# Details: with USH1C
row,Variant,effect of a mutation on the interaction
1,I845R,disrupting interaction strength
